Measurements taken from patent US20130315910A1.

What was measured:
Test in all cases: SPR
mFcγRIV = target: T1, mFcγRIV
T1 sequence: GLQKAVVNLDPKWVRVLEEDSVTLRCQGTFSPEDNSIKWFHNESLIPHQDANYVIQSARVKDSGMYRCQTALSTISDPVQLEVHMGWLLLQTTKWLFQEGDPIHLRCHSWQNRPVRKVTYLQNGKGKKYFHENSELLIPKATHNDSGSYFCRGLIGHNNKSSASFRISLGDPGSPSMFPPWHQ

[1] = target: human FcγRIIb receptor protein (R&D Systems) (human) (UniProt P31994)
[2] = target: human FcγRIIa (131H), His- and GST-tagged (human) (UniProt P12318)
[3] = target: human FcγRI receptor protein (R&D Systems) (human) (UniProt P12314)
[4] = target: human FcγRIIa (131R), His- and GST-tagged (human) (UniProt P12318)
mFcγRIIb (Mus musculus) = mFcγRIIb (Mus musculus) (UniProt P08101)
[5] = target: cynoFcγRIIb (Macaca fascicularis)

Sequence of human FcγRIIa (131H), His- and GST-tagged (human) (P12318 34-217): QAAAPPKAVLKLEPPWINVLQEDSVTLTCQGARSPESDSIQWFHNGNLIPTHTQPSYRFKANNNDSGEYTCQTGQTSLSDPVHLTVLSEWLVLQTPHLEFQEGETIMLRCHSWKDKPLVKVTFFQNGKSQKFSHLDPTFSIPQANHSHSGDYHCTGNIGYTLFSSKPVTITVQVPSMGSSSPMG
Sequence of human FcγRI receptor protein (R&D Systems) (human) (P12314 16-288 limits assumed): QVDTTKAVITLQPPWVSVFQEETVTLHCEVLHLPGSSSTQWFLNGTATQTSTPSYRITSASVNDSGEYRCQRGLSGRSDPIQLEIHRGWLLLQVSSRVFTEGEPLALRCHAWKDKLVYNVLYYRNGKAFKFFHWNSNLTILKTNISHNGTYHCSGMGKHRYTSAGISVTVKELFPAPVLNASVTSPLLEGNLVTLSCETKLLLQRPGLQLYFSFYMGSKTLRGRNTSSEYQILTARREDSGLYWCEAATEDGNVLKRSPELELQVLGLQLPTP
Sequence of human FcγRIIb receptor protein (R&D Systems) (human) (P31994 46-217 limits assumed): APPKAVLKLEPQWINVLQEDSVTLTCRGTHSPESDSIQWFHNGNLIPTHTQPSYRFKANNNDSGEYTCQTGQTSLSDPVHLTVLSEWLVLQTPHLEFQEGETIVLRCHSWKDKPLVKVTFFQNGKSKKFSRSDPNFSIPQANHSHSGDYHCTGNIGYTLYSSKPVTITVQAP
Sequence of human FcγRIIa (131R), His- and GST-tagged (human) (P12318 34-217 H167R): as the sequence (P12318 34-217) above, with H134R counted along it
Sequence of mFcγRIIb (Mus musculus) (P08101 30-210): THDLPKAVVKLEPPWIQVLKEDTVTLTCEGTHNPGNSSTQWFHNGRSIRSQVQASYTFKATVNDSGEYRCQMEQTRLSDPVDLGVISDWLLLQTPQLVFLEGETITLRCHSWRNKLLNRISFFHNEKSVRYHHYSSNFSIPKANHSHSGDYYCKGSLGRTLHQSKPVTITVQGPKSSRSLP

S267E/L328Y (antibody)
Fold vs WT IgG1 (Kd) (mFcγRIV): 0.026 fold

V266M (antibody)
Fold vs WT IgG1 (off-rate) (mFcγRIV): 1.23 fold

anti-CD19 antibody IgG1/2 ELLGG S267E/L328F
Fold vs WT IgG1 [1]: 221 fold
Kd [1]: 6.63 nM
Fold vs WT IgG1 [2]: 0.993 fold
Kd [2]: 651 nM
Fold vs WT IgG1 [3]: 2.35 fold
Kd [3]: 0.14 nM
Fold vs WT IgG1 [4]: 269 fold
Kd [4]: 3.19 nM

S267D/A327D (antibody)
Fold vs WT IgG1 (off-rate) (mFcγRIIb (Mus musculus)): 0 fold
Fold vs WT IgG1 (off-rate) [5]: 0 fold
